Measured values from patent US20200339690A1 (JOUNCE THERAPEUTICS, published 2020).

B1: J-11 (antibody, human IgG4 S228P, kappa, V domains shown)
VH: QVQLQQSGAELMKPGASVKLSCKATGYILTGYWIEWVKQRPGHGLEWIGEILPGSGSTNYNENFKGKATFTADTSSNTAYMQLSSLTTEDSAIYYCARAVLGYFDYWGQGTTLTVSS
VL: DIVMTQSHKFMSTSVGDRVSITCKASQDVSTAVAWYQQKPGQSPKLLIYWASTRHTGVPDRFTGSGSGTDYTLTISSVQAEDLALYYCHQHYSTYTFGGGTKLEIKR
notes: Human IgG4 chimera of murine origin; also called J-11.h
B2: J-17 (antibody, human IgG4 S228P, kappa, V domains shown)
VH: QIQLVQSGPELKKPGETVKISCKASGYTFTTYGLSWVKQTPGKGLKWMGWINTYSGVPTYTDDFKGRFAFSLETSASTAYLQINNLKNEDTATYFCARPYDFDQVGFAYWGQGTLVTVSA
VL: SIVMTQTPKFLLVSAGDRVSITCKASQTVSSDVAWYQQKAGQSPKLLIYYASNRYTGVPDRFTGSGYGTDFTFTISTVQAEDLAVYFCQQDYSSPFTFGGGSKLEIKR
notes: Human IgG4 chimera of murine origin; also called J-17.h

Legend:
[1] = target: T1, human LILRB2 expressed on cells (human, UniProt Q8N423 22-597); assay: flow cytometry, LILRB2 CHOs
T1 construct: CHO-s cells over-expressing full-length human LILRB2, or primary human macrophages and dendritic cells; also called hLILRB2-CHO-s; hLILRB2+ CHO-s

[2] = target: T2, Cyno Monocytes / Cyno Neutrophils (Macaca fascicularis); assay: flow cytometry, cyno whole blood, neutrophils
T2 construct: cell surface, primary blood cells; also called LILRB2+ populations in cyno whole blood

human LILRB5 = target: T3, human LILRB5 (human, UniProt O75023 24-590); assay: flow cytometry, LILRB5 CHOs
T3 construct: Over-expressed on CHO-s cells; also called hLILRB5

human LILRA5 = target: T4, human LILRA5 (human, UniProt A6NI73 42-299); assay: flow cytometry, LILRA5 CHOs
T4 construct: Over-expressed on CHO-s cells; also called hLILRA5

[3] = target: T5, Rhesus Monocytes / Rhesus Neutrophils (Macaca mulatta); assay: flow cytometry, rhesus whole blood, neutrophils
T5 construct: cell surface, primary blood cells; also called LILRB2+ populations in rhesus whole blood

[4] = target: T1, human LILRB2 expressed on cells; assay: flow cytometry, human whole blood, monocytes
[5] = target: T1, human LILRB2 expressed on cells; assay: cell-based or functional assay
[6] = target: T1, human LILRB2 expressed on cells; assay: blocking of HLA-G tetramer on LILRB2 CHOs, flow cytometry, mAb 10 ug/mL
Protocol: (§1) In the secondary screen, 1×10⁵ CHO-s cells over-expressing human LILRB2 were plated in 96-well round-bottom tissue culture-treated plate and washed twice with 1×DPBS (Gibco) and incubated with 10 μg/mL primary antibody (anti-LILRB2 mAbs or control) prepared in 50 μL FACS buffer (1×DPBS containing 2% HI-FBS (Sigma)+0.05% Sodium Azide). After incubation with mAbs for 30 minutes at 4° C., cells were washed twice in FACS buffer and then resuspended in 50 μL of FACS buffer containing 5 μg/mL APC-conjugated HLA-A2 or HLA-G tetramer (Fred Hutch). Cells were incubated protected from light for 30-60 minutes at 4° C. After incubation with tetramer, cells were washed in FACS buffer and re-suspended in fix buffer (1.5% paraformaldehyde diluted in 1×DPBS). Samples were analyzed using the Celesta flow cytometer analyzer (BD Biosciences). Data represent percent tetramer blocked by mAbs relative to tetramer alone, calculated according to the following equation: […]

human LILRA3 = target: T6, human LILRA3 (human, UniProt Q8N6C8 24-439); assay: flow cytometry, LILRA3 CHOs
T6 construct: Over-expressed on CHO-s cells; also called hLILRA3

[7] = target: T1, human LILRB2 expressed on cells; assay: blocking of HLA-A2 tetramer on LILRB2 CHOs, flow cytometry, mAb 10 ug/mL
Protocol: as §1

human LILRB1 = target: T7, human LILRB1 (human, UniProt Q8NHL6 24-650); assay: flow cytometry, LILRB1 CHOs
T7 construct: Over-expressed on CHO-s cells; also called hLILRB1

human LILRB3 = target: T8, human LILRB3 (human, UniProt O75022 24-631); assay: flow cytometry, LILRB3 CHOs
T8 construct: Over-expressed on CHO-s cells; also called hLILRB3

[8] = target: T5, Rhesus Monocytes / Rhesus Neutrophils; assay: flow cytometry, rhesus whole blood, monocytes
human LILRB2-His = human LILRB2-His (human, UniProt Q8N423 22-460); assay: SPR, Sierra Sensors MASS-2; antibody captured on anti-human Fc, LILRB2-His 65 to 0.27 nM, 1:1 Langmuir fit
Protocol: Using a Mass-2 (Sierra Sensors) high capacity amine chip preimmobilized with AffiniPure Goat Anti-Human IgG, Fcγ Fragment Specific antibody, humanized antibodies were captured on the anti-human surface and then binding to human LILRB2-His was measured by flowing six different concentrations from 65 to 0.27 nM of the analyte over the antibody surface. The anti-LILRB2 surface was removed (10 mM Glycine, pH 2.0) and recaptured between all concentrations or buffer only cycles. The data was analyzed using the Sierra Analyzer software (version 3.1.14). All curves were double subtracted and fit to a 1:1 Langmuir Fit.

human LILRA1 = target: T9, human LILRA1 (human, UniProt O75019 17-489); assay: flow cytometry, LILRA1 CHOs
T9 construct: Over-expressed on CHO-s cells; also called hLILRA1

human LILRA2 = target: T10, human LILRA2 (human, UniProt Q8N149 24-483); assay: flow cytometry, LILRA2 CHOs
T10 construct: Over-expressed on CHO-s cells; also called hLILRA2

human LILRA6 = target: T11, human LILRA6 (human, UniProt Q6PI73 24-481); assay: flow cytometry, LILRA6 CHOs
T11 construct: Over-expressed on CHO-s cells; also called hLILRA6

[9] = target: T1, human LILRB2 expressed on cells; assay: flow cytometry, human whole blood, neutrophils
human LILRB4 = target: T12, human LILRB4 (human, UniProt Q8NHJ6 22-448); assay: flow cytometry, LILRB4 CHOs
T12 construct: Over-expressed on CHO-s cells; also called hLILRB4

[10] = target: T2, Cyno Monocytes / Cyno Neutrophils; assay: flow cytometry, cyno whole blood, monocytes
human LILRA4 = target: T13, human LILRA4 (human, UniProt P59901 24-499); assay: flow cytometry, LILRA4 CHOs
T13 construct: Over-expressed on CHO-s cells; also called hLILRA4
T13 sequence (P59901 other isoform, or with tags, fused parts or gaps limits assumed): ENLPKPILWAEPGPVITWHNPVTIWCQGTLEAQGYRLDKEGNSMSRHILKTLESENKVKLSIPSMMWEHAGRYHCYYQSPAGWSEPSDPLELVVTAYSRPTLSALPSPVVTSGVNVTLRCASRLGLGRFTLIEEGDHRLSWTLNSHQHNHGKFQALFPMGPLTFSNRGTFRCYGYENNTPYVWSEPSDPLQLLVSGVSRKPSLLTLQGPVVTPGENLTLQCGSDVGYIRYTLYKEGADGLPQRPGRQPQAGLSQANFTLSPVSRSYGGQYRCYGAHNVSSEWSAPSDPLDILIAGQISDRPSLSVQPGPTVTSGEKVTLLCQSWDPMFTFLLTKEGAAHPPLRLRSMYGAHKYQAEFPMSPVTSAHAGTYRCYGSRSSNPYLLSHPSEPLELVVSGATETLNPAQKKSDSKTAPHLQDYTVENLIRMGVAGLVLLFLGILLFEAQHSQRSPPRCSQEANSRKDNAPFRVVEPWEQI

T6 sequence (Q8N6C8 24-439 limits assumed): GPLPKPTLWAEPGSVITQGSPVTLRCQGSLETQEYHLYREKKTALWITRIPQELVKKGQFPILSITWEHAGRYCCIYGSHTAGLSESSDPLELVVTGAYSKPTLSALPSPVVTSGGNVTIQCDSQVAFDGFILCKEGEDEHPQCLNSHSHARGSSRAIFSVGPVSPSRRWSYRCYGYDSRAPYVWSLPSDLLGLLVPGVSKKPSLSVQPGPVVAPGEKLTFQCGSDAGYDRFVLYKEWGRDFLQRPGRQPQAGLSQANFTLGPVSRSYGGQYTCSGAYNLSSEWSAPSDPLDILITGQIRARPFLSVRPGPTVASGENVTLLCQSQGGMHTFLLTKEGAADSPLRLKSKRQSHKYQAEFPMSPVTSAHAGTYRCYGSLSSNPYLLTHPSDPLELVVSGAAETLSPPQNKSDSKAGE
T4 sequence (A6NI73 42-299 limits assumed): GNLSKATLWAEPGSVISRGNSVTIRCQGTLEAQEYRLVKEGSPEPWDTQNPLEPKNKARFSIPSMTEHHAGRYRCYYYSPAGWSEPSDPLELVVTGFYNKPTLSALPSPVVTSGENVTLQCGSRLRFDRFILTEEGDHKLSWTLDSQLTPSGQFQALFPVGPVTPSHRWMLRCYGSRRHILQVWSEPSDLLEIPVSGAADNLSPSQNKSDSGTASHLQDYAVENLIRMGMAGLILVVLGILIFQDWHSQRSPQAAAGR
Chain of human LILRB2-His (Q8N423 other isoform, or with tags, fused parts or gaps): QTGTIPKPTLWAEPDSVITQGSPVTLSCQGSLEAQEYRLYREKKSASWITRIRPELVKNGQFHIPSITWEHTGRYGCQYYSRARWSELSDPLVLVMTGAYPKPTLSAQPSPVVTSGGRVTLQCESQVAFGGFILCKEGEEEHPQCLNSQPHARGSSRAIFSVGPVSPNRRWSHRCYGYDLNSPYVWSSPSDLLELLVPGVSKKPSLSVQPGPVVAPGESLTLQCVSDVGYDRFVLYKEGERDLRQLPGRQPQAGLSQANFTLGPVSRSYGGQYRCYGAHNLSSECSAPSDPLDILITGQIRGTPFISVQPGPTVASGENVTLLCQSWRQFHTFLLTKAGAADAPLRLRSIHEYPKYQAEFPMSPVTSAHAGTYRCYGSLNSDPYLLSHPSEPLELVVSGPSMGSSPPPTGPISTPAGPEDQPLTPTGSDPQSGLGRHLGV
T11 sequence (Q6PI73 24-481 limits assumed): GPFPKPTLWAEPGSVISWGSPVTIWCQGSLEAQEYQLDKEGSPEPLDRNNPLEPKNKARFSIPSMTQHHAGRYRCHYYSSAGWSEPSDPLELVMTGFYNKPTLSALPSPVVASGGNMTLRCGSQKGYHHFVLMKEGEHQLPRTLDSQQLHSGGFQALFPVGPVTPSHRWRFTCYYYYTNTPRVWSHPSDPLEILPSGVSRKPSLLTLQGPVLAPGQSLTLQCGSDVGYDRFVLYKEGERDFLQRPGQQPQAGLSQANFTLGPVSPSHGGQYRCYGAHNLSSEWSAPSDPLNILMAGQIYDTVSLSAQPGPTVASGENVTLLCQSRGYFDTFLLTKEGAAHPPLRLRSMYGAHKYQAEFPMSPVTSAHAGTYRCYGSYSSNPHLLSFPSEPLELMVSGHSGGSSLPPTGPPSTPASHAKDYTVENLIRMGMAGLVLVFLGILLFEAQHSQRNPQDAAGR
T1 sequence (Q8N423 other isoform, or with tags, fused parts or gaps limits assumed): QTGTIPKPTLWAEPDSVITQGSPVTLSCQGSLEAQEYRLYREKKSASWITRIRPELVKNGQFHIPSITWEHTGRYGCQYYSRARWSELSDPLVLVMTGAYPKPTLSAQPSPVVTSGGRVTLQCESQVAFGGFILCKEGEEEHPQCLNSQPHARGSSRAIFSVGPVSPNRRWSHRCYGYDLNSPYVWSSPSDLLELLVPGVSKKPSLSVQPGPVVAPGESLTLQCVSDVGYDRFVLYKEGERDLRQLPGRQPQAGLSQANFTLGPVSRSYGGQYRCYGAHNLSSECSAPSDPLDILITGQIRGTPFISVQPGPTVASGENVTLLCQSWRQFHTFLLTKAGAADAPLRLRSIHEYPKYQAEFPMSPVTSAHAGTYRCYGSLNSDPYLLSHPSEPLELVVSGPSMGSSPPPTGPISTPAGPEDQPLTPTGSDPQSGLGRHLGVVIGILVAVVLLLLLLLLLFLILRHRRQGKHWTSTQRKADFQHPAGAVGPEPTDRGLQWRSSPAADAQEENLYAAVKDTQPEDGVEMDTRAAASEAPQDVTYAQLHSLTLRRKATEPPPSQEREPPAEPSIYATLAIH
T10 sequence (Q8N149 24-483 S135L limits assumed): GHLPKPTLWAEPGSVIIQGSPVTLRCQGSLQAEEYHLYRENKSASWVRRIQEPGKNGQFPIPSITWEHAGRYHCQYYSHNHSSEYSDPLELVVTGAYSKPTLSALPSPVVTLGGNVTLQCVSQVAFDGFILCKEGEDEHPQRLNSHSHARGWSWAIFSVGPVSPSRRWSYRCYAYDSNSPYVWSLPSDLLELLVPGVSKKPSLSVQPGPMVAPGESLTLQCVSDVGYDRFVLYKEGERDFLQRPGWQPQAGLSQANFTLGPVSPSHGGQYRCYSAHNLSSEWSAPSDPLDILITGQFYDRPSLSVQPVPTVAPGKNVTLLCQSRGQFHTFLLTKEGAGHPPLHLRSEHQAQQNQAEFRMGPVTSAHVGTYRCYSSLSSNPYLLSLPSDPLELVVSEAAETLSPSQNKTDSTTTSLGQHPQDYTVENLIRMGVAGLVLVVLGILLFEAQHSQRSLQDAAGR
T7 sequence (Q8NHL6 24-650 limits assumed): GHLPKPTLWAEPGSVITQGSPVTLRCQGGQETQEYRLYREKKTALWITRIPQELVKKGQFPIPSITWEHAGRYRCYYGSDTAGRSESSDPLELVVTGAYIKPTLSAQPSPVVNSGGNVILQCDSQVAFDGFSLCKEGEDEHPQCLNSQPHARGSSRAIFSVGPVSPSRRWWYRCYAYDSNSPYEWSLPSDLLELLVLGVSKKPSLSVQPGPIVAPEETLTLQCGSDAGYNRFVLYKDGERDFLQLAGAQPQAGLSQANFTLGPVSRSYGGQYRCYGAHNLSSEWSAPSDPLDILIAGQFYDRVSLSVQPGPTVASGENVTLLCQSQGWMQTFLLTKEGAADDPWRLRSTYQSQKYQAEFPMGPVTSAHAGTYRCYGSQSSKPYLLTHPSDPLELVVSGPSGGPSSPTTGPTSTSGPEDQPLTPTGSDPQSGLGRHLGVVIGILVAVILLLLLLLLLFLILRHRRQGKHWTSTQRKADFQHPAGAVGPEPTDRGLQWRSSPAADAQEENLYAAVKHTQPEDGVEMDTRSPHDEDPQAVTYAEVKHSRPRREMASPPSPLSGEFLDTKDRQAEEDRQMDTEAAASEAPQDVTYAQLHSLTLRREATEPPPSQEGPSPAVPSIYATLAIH
T3 sequence (O75023 24-590 P542R limits assumed): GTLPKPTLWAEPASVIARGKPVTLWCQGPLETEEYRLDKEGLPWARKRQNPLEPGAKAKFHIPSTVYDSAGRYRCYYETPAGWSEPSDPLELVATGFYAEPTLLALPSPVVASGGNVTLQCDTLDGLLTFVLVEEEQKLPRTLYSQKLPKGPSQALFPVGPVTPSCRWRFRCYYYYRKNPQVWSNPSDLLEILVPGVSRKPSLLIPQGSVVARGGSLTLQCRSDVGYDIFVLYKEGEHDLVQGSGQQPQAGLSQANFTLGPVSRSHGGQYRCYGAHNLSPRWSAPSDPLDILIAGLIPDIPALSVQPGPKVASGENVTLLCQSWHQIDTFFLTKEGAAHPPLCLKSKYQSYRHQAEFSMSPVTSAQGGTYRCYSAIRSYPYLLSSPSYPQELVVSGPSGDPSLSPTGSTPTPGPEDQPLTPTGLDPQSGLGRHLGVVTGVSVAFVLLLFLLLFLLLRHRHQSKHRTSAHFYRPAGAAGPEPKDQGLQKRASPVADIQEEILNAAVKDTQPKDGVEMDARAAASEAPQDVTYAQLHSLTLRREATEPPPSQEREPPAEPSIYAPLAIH
T9 sequence (O75019 17-489 limits assumed): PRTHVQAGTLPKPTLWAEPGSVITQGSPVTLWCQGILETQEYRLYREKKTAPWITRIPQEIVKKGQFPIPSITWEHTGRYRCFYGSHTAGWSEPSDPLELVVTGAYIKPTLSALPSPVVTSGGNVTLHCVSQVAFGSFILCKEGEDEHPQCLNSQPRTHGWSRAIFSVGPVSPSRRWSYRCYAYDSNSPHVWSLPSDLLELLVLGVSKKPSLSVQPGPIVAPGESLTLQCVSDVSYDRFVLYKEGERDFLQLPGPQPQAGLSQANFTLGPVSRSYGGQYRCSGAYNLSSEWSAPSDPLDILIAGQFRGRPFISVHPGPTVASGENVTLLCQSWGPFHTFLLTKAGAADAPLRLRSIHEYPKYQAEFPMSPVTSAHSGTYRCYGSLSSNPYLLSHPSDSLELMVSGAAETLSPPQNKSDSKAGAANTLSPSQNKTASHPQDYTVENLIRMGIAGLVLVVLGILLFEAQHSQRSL

| binding (fold over iso) [1] [fold over iso] | Cyno Neutrophils binding (fold over iso) [2] [fold over iso] | binding (fold over iso) (human LILRB5) | binding result (human LILRB5) | binding (fold over iso) (human LILRA5) | binding result (human LILRA5) | Rhesus Neutrophils binding (fold over iso) [3] [fold over iso] | Human Monocytes binding (fold over iso) [4] [fold over iso] | CCL2 production (fold over LPS alone) [5] [fold over LPS alone] | IL-6 production (fold over LPS alone) [5] [fold over LPS alone] | IL-10 production (fold over LPS alone) [5] [fold over LPS alone] | TNFa production (fold over LPS alone) [5] [fold over LPS alone] | HLA-G:LILRB2 CHOs blocking (% blocked) [6] [% blocked] | binding (fold over iso) (human LILRA3) | binding result (human LILRA3) | HLA-A2:LILRB2 CHOs blocking (% blocked) [7] [% blocked] | binding (fold over iso) (human LILRB1) | binding result (human LILRB1) | binding (fold over iso) (human LILRB3) | binding result (human LILRB3) | other results | Binder |
| --- | --- | --- | --- | --- | --- | --- | --- | --- | --- | --- | --- | --- | --- | --- | --- | --- | --- | --- | --- | --- | --- |
| 3.49 | 0.94 | 1.22 | no binding | 1.34 | no binding | 0.64 | 8.54 | 0.96 | 3.06 | 0.81 | 7.61 | 99.9 | 1.02 | no binding | 94.4 | 1.07 | no binding | 1.09 | no binding | Rhesus Monocytes binding (fold over iso) [8]: 0.88 fold over iso; Kd (human LILRB2-His): 2.47 nM; koff (human LILRB2-His): 0.000913 s⁻¹; kon (human LILRB2-His): 370000 M⁻¹ s⁻¹; binding (fold over iso) (human LILRA1): -1.63 fold over iso; binding result (human LILRA1): no binding; binding (fold over iso) (human LILRA2): -2.52 fold over iso; binding result (human LILRA2): no binding; binding (fold over iso) (human LILRA6): 1 fold over iso; binding result (human LILRA6): no binding; Human Neutrophils binding (fold over iso) [9]: 2.89 fold over iso; binding (fold over iso) (human LILRB4): 1.03 fold over iso; binding result (human LILRB4): no binding; Cyno Monocytes binding (fold over iso) [10]: 0.71 fold over iso; binding (fold over iso) (human LILRA4): -1.27 fold over iso; binding result (human LILRA4): no binding | B1 |
| 3.68 | 0.87 | 1.03 | no binding | 0.82 | no binding | 1.44 | 11.3 | 1.85 | 2.57 | 0.89 | 8.12 | 96.6 | 1.35 | no binding | 93.4 | 1.05 | no binding | 0.99 | no binding | Rhesus Monocytes binding (fold over iso) [8]: 1.41 fold over iso; Kd (human LILRB2-His): 2.85 nM; kon (human LILRB2-His): 1.56e+06 M⁻¹ s⁻¹; binding (fold over iso) (human LILRA2): -1.05 fold over iso; binding result (human LILRA2): no binding; binding (fold over iso) (human LILRA6): 0.94 fold over iso; binding result (human LILRA6): no binding; Human Neutrophils binding (fold over iso) [9]: 4.55 fold over iso; binding (fold over iso) (human LILRB4): 1 fold over iso; binding result (human LILRB4): no binding; Cyno Monocytes binding (fold over iso) [10]: 0.92 fold over iso; binding (fold over iso) (human LILRA4): -36.5 fold over iso; binding result (human LILRA4): no binding | B2 |
